Experimental findings from publication PMC8924211 (Nature Communications, 2022) are described below.

Holding throughout (assay): AlphaScreen or HTRF; saturation binding: HEK293 cells transfected with SNAP-tagged receptor (WT or mutant) and labelled with SNAP-Lumi4-Tb, incubated with increasing concentrations of galanin-A2 in the presence or absence of 100 uM unlabeled galanin, 1 h at room temperature; HTRF ratio 665 nm/620 nm
Conditions in all cases: one partner purified

For assay [1], the target named is T1, N-terminal-SNAP-tagged GAL2R, wild type (human, UniProt O43603 1-387, Lumi4-Tb on the SNAP tag).
T1 construct: also called SNAP-GAL2R; GAL2R WT; source: HEK293, transfected, on cells; not shown: SNAP tag, N-terminal, kept
T1 sequence (looked up): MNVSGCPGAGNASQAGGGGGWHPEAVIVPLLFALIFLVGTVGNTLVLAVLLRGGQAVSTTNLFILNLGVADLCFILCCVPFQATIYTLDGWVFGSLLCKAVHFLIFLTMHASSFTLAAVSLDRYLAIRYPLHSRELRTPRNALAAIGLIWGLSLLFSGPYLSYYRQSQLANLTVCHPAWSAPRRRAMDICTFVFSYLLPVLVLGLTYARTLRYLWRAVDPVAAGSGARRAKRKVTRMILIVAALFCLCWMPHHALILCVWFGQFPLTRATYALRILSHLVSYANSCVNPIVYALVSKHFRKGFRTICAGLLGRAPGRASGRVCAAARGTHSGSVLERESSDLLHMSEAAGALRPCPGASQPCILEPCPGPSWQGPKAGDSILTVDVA

For a further assay, the target named is T2, SNAP-GAL2R L169^ECL2A (human, UniProt O43603 1-387, L169^ECL2A, Lumi4-Tb on the SNAP tag).
T2 construct: also called L169A; source: HEK293, transfected, on cells; not shown: SNAP tag, N-terminal, kept
T2 sequence (looked up): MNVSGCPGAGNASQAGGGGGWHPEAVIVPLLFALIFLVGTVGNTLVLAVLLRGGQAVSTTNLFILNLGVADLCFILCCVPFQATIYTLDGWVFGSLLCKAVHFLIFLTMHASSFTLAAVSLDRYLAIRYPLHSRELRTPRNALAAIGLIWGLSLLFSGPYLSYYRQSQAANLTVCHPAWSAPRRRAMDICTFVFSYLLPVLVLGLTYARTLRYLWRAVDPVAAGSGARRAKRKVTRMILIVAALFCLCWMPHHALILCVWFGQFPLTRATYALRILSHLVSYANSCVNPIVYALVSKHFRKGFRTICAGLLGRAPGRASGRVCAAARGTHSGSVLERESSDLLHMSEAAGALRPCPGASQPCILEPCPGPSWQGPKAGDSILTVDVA

The next assay deals with T3, SNAP-GAL2R T267^7.28A (human, UniProt O43603 1-387, T267^7.28A, Lumi4-Tb on the SNAP tag).
T3 construct: also called T267A; source: HEK293, transfected, on cells; not shown: SNAP tag, N-terminal, kept
T3 sequence (looked up): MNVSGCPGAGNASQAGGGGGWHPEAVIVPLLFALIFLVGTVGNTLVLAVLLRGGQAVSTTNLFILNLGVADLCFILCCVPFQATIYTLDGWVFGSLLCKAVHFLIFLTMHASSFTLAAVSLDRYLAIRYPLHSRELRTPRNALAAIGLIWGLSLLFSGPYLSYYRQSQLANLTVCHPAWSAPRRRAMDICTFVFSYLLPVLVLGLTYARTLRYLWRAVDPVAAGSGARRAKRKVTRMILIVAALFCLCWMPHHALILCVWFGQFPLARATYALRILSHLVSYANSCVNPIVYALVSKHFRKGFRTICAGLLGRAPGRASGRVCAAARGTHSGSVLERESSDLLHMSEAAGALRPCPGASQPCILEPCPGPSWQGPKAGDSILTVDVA

The target of a further assay is T4, SNAP-GAL2R W249^6.48A (human, UniProt O43603 1-387, W249^6.48A, Lumi4-Tb on the SNAP tag).
T4 construct: also called W249A; source: HEK293, transfected, on cells; not shown: SNAP tag, N-terminal, kept
T4 sequence (looked up): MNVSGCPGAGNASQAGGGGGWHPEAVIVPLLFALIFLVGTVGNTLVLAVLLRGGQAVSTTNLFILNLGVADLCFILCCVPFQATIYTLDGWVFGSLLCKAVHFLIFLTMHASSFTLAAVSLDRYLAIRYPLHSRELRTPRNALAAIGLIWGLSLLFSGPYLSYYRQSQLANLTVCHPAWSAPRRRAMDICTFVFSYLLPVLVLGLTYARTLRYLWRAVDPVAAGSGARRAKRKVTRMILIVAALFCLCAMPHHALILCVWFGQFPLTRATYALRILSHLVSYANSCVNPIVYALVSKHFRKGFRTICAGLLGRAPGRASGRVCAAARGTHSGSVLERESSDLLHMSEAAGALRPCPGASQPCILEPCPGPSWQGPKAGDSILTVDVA

In general, Kd refers to the constant that tells how readily two partners part at equilibrium.

B1: galanin-A2 (full-length galanin labeled with the dye A2 on an additional cysteine at the C-terminal end) (peptide)
peptide: GWTLNSAGYLLGPHAVGNHRSFSDKNGLTSC
modifications: dye A2 on the additional C-terminal cysteine
notes: numbers count on: the mature protein; additional cysteine at the C-terminal end of the peptide, carries the dye A2; source: synthetic peptide (synthesized by Vazyme, China)
On to B1, for which the Kd is 21.7 nM in assay [1], 86.2 nM with SNAP-GAL2R L169^ECL2A, 229 nM with SNAP-GAL2R T267^7.28A and 23.3 nM in the assay with SNAP-GAL2R W249^6.48A.
